Laboratory results taken from patent US20240409647A1, “BISPECIFIC BINDING PROTEINS AGAINST ALARMINS AND USES THEREOF” (SINOMAB BIOSCIENCE LIMITED, priority 2022, published 2024).

Assays:
[1] = biological target: T1, human IL17RB expressed on HEK293 cells (Homo sapiens, UniProt Q9NRM6); assay: Flow cytometry, SM17 binding to HEK293 transfected with human IL-17RB; conditions: SM17 1 μg/ml
T1 construct: transfected either with full-length human or rhesus monkey IL-17RB (SinoBiological, Beijing, China); host or cells: HEK293
T1 sequence (Q9NRM6 18-502): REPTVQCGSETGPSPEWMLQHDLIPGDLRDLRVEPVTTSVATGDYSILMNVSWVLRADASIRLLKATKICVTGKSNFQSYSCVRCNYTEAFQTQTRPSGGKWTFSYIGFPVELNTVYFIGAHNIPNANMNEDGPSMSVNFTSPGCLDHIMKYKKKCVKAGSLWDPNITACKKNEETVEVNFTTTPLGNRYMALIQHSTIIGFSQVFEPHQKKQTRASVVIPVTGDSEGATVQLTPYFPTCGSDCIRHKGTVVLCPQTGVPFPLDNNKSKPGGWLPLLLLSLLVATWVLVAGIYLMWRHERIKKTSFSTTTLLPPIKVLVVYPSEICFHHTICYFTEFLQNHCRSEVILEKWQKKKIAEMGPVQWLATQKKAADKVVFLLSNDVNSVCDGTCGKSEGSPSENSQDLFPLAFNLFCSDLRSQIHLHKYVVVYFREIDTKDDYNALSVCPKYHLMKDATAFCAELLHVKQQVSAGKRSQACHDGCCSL
Procedure: HEK293 cells (ATCC, Manassas, VA) transfected either with full-length human or rhesus monkey IL-17RB (SinoBiological, Beijing, China) were examined for binding to SM17 following standard protocol for flow cytometry. Wild-type HEK293 stained with IgG4 isotype control (Sino Biological) was used as the negative control and for gating purpose. Briefly, HEK293 cells at a density of 3×10^5 cells were seeded into each well of a 6-well plate. On the next day, human or rhesus Il-17RB full length cDNA were first cloned into pCMV3-untagged expression plasmid through standard molecular cloning technique, and then expression plasmids for human or rhesus IL-17RB were transfected into HEK293 cells by lipofection (Lipofectamine 3000 reagent; Thermo Fisher Scientific). Transfected cells were trypsinized, harvested, and fixed with 4% paraformaldehyde (5 minutes). SM17, or human IgG4 control at 1 μg/ml in washing buffer (3% BSA in PBS) were added to the resuspend cells for incubation at RT for 30 min before Alexa Fluor® 647-conjugated goat anti-human IgG specific antibody (1:2000 dilution in washing buffer) (Jackson ImmunoResearch) was added for flow cytometry analysis using the BD FACSVerse cell analyzer (Becton Dickenson, Franklin Lakes, NJ).

[2] = test system: Th2 cell population in human PBMC; assay: Th2 cell population in human PBMC culture (flow cytometry); type: cell-based; set-up: key: −: no inhibition; +: weak; ++: moderate; +++: strong inhibition; conditions: IL-2 (10 unit/mL) and three alarmins (10 ng/ml), 5 days
Text: While alarmins are known to work in concert to enhance ILC2 and Th2 cell functions such as increase in cell population, steroids such as Dexamethasone (Dex) can negate these effects, resulting in the mitigation of type 2 immune responses [Jia, Yi et al. American Journal Of Respiratory Cell And Molecular Biology, vol. 55, 5 (2016): 675-683]. ILC2 and Th2 cell population can be determined by flow cytometry (BD FACSVerse) following standard procedures known to those skilled in the art.

hIL17RE = biological target: T2, hIL17RE (Homo sapiens, UniProt Q8NFR9); assay: ELISA, SM17 specificity against IL-17 receptor subunits (IL17RE); type: binding; conditions: 0.4 to 0.00064 μg/mL
T2 construct: purchased R&D systems
T2 sequence (Q8NFR9 24-667): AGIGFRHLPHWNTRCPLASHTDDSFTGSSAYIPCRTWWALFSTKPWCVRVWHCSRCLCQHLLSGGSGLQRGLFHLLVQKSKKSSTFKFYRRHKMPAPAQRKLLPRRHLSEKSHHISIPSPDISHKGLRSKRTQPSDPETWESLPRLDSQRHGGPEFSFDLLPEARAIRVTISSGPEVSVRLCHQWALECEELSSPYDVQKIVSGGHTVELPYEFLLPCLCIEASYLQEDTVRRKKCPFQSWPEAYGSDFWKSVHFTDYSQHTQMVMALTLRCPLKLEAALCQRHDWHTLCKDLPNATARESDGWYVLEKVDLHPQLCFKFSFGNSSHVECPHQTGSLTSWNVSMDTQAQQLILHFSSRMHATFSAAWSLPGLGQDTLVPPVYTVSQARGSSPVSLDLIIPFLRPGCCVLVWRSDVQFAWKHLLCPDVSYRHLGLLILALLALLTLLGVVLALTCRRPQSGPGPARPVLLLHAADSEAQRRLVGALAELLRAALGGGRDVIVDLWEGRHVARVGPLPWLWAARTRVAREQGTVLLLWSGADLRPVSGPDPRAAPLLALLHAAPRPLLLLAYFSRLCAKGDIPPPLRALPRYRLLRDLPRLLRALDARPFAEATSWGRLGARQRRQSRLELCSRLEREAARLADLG
Procedure: A standard ELISA method was used to determine the specificity of SM17 against other human IL17 receptor subunits. Similarly, serially diluted SM17 at different concentrations (final concentrations at 0.4, 0.08, 0.016, 0.0032 and 0.00064 μg/m, respectively) was added to the wells of ELISA plates coated either with human IL-17 receptor subunits A, C, D and E (IL17RA, IL17RC, IL17RD, and IL17RE) (R&D systems).

binding of SM17 to hIL17RB-HEK293 [1]: 46% | binding of SM17 to IL17RE (in words) (hIL17RE): No obvious bindings
Substance: SM17: humanized anti-IL17RB monoclonal antibody, human IgG4 isotype; HC SEQ ID NO: 32, LC SEQ ID NO: 33
Cell proliferation inhibition, Th2 [2]: +++
